B1: Phosphocarrier protein HPr, P08877 (parent)
chain: MAQKTFKVTADSGIHARPATVLVQTASKYDADVNLEYNGKTVNLKSIMGVMSLGIAKGAEITISASGADENDALNALEETMKSEGLGE

Variants of B1 are the subject of this data set. To be noted: Bacillus subtilis (strain 168), pH 7, CD, sodium phosphate 10 mM, reversible: Yes, structure 2HPR, whole UniProt chain shown; for ddG of mutation (higher = less stable) / denaturant m value / unfolding free energy: 25 °C; for Tm / change of melting temperature, mutant - wild type (higher = more stable) / unfolding enthalpy (van 't Hoff): Thermal.

This note sets out measurements from FireProtDB (doi:10.1021/bi060038+).

One may read the Tm as the temperature at which the thermal transition is half complete.

For the variant MKQKTFKVTADSGIHARPATVLVQTASKYDADVNLEYNGKTVNLKSIMGVMSLGIAKGAEITISASGADEEDALNALEETMKSEGLGE, the Tm came to 79.6 °C; the “change of melting temperature, mutant - wild type (higher = more stable)” value turned out to be 6.6 °C; the “unfolding enthalpy (van 't Hoff)” value came to 85 kcal/mol. In addition, under “GdnHCl”, the “ddG of mutation (higher = less stable)” value is -1.1 kcal/mol, the denaturant m value is 3.37 kcal/mol/M and the unfolding free energy was 4.5 kcal/mol. Under “Urea”, the “ddG of mutation (higher = less stable)” value was -1.1 kcal/mol, the denaturant m value came out at 0.95 kcal/mol/M and the unfolding free energy is 6.1 kcal/mol.

For the variant MRQKTFKVTADSGIHARPATVLVQTASKYDADVNLEYNGKTVNLKSIMGVMSLGIAKGAEITISASGADEEDALNALEETMKSEGLGE, the Tm was found to be 83.1 °C; the “change of melting temperature, mutant - wild type (higher = more stable)” value was 10.1 °C; the “unfolding enthalpy (van 't Hoff)” value amounted to 91 kcal/mol. Further, for the setting “GdnHCl”, the “ddG of mutation (higher = less stable)” value was -1.5 kcal/mol, the denaturant m value was found to be 3.39 kcal/mol/M and the unfolding free energy worked out at 4.9 kcal/mol.
